# Measurements taken from PMC10397247.
# T1: 4H717-AA
# T1 chain: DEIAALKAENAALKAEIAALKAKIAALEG
# T2: 4H2393-AA
# T2 chain: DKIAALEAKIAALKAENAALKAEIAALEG
# T3: 4H906-AA
# T3 chain: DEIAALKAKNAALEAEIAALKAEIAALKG
# T4: 4H2642-AA
# T4 chain: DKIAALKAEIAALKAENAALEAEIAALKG
# T5: 4H993-AA
# T5 chain: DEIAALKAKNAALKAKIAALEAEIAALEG
# T6: 4H2617-AA
# T6 chain: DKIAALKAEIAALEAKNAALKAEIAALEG
# T7: 4H2505-AA
# T7 chain: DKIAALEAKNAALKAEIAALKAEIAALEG
# T8: 4H454-AA
# T8 chain: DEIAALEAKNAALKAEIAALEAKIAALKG
# T9: 4H2354-AA
# T9 chain: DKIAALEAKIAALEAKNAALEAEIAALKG
# T10: 4H3112-AA
# T10 chain: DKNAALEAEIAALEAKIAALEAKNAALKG
# T11: 4H3427-AA
# T11 chain: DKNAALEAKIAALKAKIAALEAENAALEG
# T12: 4H566-AA
# T12 chain: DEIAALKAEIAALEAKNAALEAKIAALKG
# T13: 4H429-AA
# T13 chain: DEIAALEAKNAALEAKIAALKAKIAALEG
# T14: 4H3627-AA
# T14 chain: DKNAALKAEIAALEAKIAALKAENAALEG
# T15: 4H2165-AA
# T15 chain: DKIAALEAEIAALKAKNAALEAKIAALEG
# T16: 4H48-AA
# T16 chain: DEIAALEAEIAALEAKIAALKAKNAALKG
# T17: 4H3606-AA
# T17 chain: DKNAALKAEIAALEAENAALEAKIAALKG
# T18: 4H678-AA
# T18 chain: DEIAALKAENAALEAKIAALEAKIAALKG
# T19: 4H234-AA
# T19 chain: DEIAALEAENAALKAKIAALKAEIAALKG
# T20: 4H881-AA
# T20 chain: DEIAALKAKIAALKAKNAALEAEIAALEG
# T21: 4H2277-AA
# T21 chain: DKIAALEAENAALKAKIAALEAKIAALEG
# T22: 4H2837-AA
# T22 chain: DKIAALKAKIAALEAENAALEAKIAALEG
# T23: 4H342-AA
# T23 chain: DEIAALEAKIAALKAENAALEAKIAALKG
# T24: 4H3343-AA
# T24 chain: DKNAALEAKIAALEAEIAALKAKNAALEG
# T25: 4H2190-AA
# T25 chain: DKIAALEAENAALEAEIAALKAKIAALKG
# T26: 4H2883-AA
# T26 chain: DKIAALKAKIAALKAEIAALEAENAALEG
# T27: 4H794-AA
# T27 chain: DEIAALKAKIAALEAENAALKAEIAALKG
# T28: 4H2754-AA
# T28 chain: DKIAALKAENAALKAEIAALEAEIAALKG
# T29: 4H2466-AA
# T29 chain: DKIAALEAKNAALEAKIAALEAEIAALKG
# T30: 4H2949-AA
# T30 chain: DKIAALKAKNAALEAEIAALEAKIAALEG
# T31: 4H2944-AA
# T31 chain: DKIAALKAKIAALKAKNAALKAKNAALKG
# T32: 4H2729-AA
# T32 chain: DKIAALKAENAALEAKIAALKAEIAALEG
# T33: 4H317-AA
# T33 chain: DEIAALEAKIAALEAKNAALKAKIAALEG
# T34: 4H2151-AA
# T34 chain: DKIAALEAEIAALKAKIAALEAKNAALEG
# T35: 4H3844-AA
# T35 chain: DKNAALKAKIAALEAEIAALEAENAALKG
# T36: 4H3655-AA
# T36 chain: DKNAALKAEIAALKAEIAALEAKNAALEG
# T37: 4H605-AA
# T37 chain: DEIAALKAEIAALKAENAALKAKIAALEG
# T38: 4H2774-AA
# T38 chain: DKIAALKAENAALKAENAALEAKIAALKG
# T39: 4H56-AA
# T39 chain: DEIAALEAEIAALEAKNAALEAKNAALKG
# T40: 4H406-AA
# T40 chain: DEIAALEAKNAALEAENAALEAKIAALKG
# T41: 4H_BCR
# T41 chain: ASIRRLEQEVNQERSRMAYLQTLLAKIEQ
# T42: 4H347-AA
# T42 chain: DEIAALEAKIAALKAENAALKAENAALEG
# T43: 4H_APH
# T43 chain: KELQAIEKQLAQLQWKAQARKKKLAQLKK
# T44: 4H2931-AA
# T44 chain: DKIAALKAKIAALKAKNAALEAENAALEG
# T45: 4H3073-AA
# T45 chain: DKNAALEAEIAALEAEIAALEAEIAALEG
# T46: 4H3015-AA
# T46 chain: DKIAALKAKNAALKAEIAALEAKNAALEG
# T47: 4H3381-AA
# T47 chain: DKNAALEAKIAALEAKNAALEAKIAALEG
# T48: 4H376-AA
# T48 chain: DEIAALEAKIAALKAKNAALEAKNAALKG
# T49: 4H2611-AA
# T49 chain: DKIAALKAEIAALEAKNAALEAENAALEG
# T50: 4H3340-AA
# T50 chain: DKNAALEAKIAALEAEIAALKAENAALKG
# T51: 4H688-AA
# T51 chain: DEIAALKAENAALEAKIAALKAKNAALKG
# T52: 4H2732-AA
# T52 chain: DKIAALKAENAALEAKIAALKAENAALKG
# T53: 4H452-AA
# T53 chain: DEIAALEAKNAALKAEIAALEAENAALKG
# T54: 4H3438-AA
# T54 chain: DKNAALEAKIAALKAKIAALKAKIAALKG
# T55: 4H3001-AA
# T55 chain: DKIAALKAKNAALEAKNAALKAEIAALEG
# T56: 4H3493-AA
# T56 chain: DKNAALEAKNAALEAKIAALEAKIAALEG
# T57: 4H963-AA
# T57 chain: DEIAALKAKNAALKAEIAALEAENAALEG
# T58: 4H2592-AA
# T58 chain: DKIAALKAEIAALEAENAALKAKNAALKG
# What was measured:
# Experiment in all cases: two-hybrid library CCmax;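 further: natural log of median RNA to DNA barcode read ratio; higher means stronger binding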
# 4H717-AA = target: T1, 4H717-AA; conditions: mean of both orientations
# 4H2393-AA = target: T2, 4H2393-AA; conditions: mean of both orientations
# 4H906-AA = target: T3, 4H906-AA; conditions: mean of both orientations
# 4H2642-AA = target: T4, 4H2642-AA; conditions: mean of both orientations
# 4H993-AA = target: T5, 4H993-AA; conditions: mean of both orientations
# 4H2617-AA = target: T6, 4H2617-AA; conditions: mean of both orientations
# 4H2505-AA = target: T7, 4H2505-AA; conditions: mean of both orientations
# 4H454-AA = target: T8, 4H454-AA; conditions: mean of both orientations
# 4H2354-AA = target: T9, 4H2354-AA; conditions: mean of both orientations
# 4H3112-AA = target: T10, 4H3112-AA; conditions: mean of both orientations
# 4H3427-AA = target: T11, 4H3427-AA; conditions: mean of both orientations
# 4H566-AA = target: T12, 4H566-AA; conditions: mean of both orientations
# 4H429-AA = target: T13, 4H429-AA; conditions: mean of both orientations
# 4H3627-AA = target: T14, 4H3627-AA; conditions: mean of both orientations
# 4H2165-AA = target: T15, 4H2165-AA; conditions: mean of both orientations
# 4H48-AA = target: T16, 4H48-AA; conditions: mean of both orientations
# 4H3606-AA = target: T17, 4H3606-AA; conditions: mean of both orientations
# 4H678-AA = target: T18, 4H678-AA; conditions: mean of both orientations
# 4H234-AA = target: T19, 4H234-AA; conditions: mean of both orientations
# 4H881-AA = target: T20, 4H881-AA; conditions: mean of both orientations
# 4H2277-AA = target: T21, 4H2277-AA; conditions: mean of both orientations
# 4H2837-AA = target: T22, 4H2837-AA; conditions: mean of both orientations
# 4H342-AA = target: T23, 4H342-AA; conditions: mean of both orientations
# 4H3343-AA = target: T24, 4H3343-AA; conditions: mean of both orientations
# 4H2190-AA = target: T25, 4H2190-AA; conditions: mean of both orientations
# 4H2883-AA = target: T26, 4H2883-AA; conditions: mean of both orientations
# 4H794-AA = target: T27, 4H794-AA; conditions: mean of both orientations
# 4H2754-AA = target: T28, 4H2754-AA; conditions: mean of both orientations
# 4H2466-AA = target: T29, 4H2466-AA; conditions: mean of both orientations
# 4H2949-AA = target: T30, 4H2949-AA; conditions: mean of both orientations
# 4H2944-AA = target: T31, 4H2944-AA; conditions: mean of both orientations
# 4H2729-AA = target: T32, 4H2729-AA; conditions: mean of both orientations
# 4H317-AA = target: T33, 4H317-AA; conditions: mean of both orientations
# 4H2151-AA = target: T34, 4H2151-AA
# 4H3844-AA = target: T35, 4H3844-AA; conditions: mean of both orientations
# 4H3655-AA = target: T36, 4H3655-AA; conditions: mean of both orientations
# 4H605-AA = target: T37, 4H605-AA; conditions: mean of both orientations
# 4H2774-AA = target: T38, 4H2774-AA; conditions: mean of both orientations
# 4H56-AA = target: T39, 4H56-AA; conditions: mean of both orientations
# 4H406-AA = target: T40, 4H406-AA; conditions: mean of both orientations
# 4H_BCR = target: T41, 4H_BCR; conditions: mean of both orientations
# 4H347-AA = target: T42, 4H347-AA; conditions: mean of both orientations
# 4H_APH = target: T43, 4H_APH; conditions: mean of both orientations
# GCN2_T = target: GCN2_T
# 4H2931-AA = target: T44, 4H2931-AA; conditions: mean of both orientations
# 4H3073-AA = target: T45, 4H3073-AA; conditions: mean of both orientations
# 4H3015-AA = target: T46, 4H3015-AA; conditions: mean of both orientations
# 4H3381-AA = target: T47, 4H3381-AA; conditions: mean of both orientations
# 4H_GCN4 = target: 4H_GCN4
# 4H_GCN4, sequence (chain, as listed by the source): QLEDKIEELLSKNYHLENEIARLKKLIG
# 4H376-AA = target: T48, 4H376-AA; conditions: mean of both orientations
# 4H2611-AA = target: T49, 4H2611-AA; conditions: mean of both orientations
# 4H3340-AA = target: T50, 4H3340-AA; conditions: mean of both orientations
# 4H688-AA = target: T51, 4H688-AA; conditions: mean of both orientations
# 4H2732-AA = target: T52, 4H2732-AA; conditions: mean of both orientations
# 4H452-AA = target: T53, 4H452-AA; conditions: mean of both orientations
# 4H3438-AA = target: T54, 4H3438-AA; conditions: mean of both orientations
# 4H3001-AA = target: T55, 4H3001-AA; conditions: mean of both orientations
# 4H3493-AA = target: T56, 4H3493-AA; conditions: mean of both orientations
# 4H963-AA = target: T57, 4H963-AA; conditions: mean of both orientations
# 4H2592-AA = target: T58, 4H2592-AA
binder,measurement,setting,value
DKIAALEAEIAALKAKIAALEAKNAALEG [4H2151-AA],interaction score,4H717-AA,-1.61
same,interaction score,4H2393-AA,-1.54
same,interaction score,4H906-AA,-1.28
same,interaction score,4H2642-AA,-1.42
same,interaction score,4H993-AA,-1.43
same,interaction score,4H2617-AA,-0.476
same,interaction score,4H2505-AA,-1.6
same,interaction score,4H454-AA,-1.11
same,interaction score,4H2354-AA,-1.44
same,interaction score,4H3112-AA,-0.356
same,interaction score,4H3427-AA,-1.02
same,interaction score,4H566-AA,-1.47
same,interaction score,4H429-AA,-1.48
same,interaction score,4H3627-AA,-0.182
same,interaction score,4H2165-AA,-0.932
same,interaction score,4H48-AA,0.747
same,interaction score,4H3606-AA,-1.24
same,interaction score,4H678-AA,-1.37
same,interaction score,4H234-AA,-1.58
same,interaction score,4H881-AA,-1.51
same,interaction score,4H2277-AA,-1.38
same,interaction score,4H2837-AA,-1.4
same,interaction score,4H342-AA,-1.26
same,interaction score,4H3343-AA,-1.19
same,interaction score,4H2190-AA,-1.15
same,interaction score,4H2883-AA,0.105
same,interaction score,4H794-AA,-1.95
same,interaction score,4H2754-AA,-1.27
same,interaction score,4H2466-AA,-1.42
same,interaction score,4H2949-AA,-0.904
same,interaction score,4H2944-AA,-1.39
same,interaction score,4H2729-AA,-0.63
same,interaction score,4H317-AA,-0.983
same,interaction score,4H2151-AA,1.45
same,interaction score,4H3844-AA,-0.871
same,interaction score,4H3655-AA,-0.942
same,interaction score,4H605-AA,-1.4
DKIAALKAEIAALEAENAALKAKNAALKG [4H2592-AA],interaction score,4H2774-AA,0.283
same,interaction score,4H56-AA,-0.726
same,interaction score,4H406-AA,-1.19
same,interaction score,4H_BCR,-1.75
same,interaction score,4H347-AA,1.59
same,interaction score,4H_APH,-1.66
same,interaction score,GCN2_T,-1.04
same,interaction score,4H2931-AA,1.75
same,interaction score,4H3073-AA,-0.000754
same,interaction score,4H3015-AA,-1.39
same,interaction score,4H3381-AA,-1.72
same,interaction score,4H_GCN4,-1.33
same,interaction score,4H376-AA,0.226
same,interaction score,4H2611-AA,0.971
same,interaction score,4H3340-AA,0.143
same,interaction score,4H688-AA,-1.42
same,interaction score,4H2732-AA,0.248
same,interaction score,4H452-AA,-0.641
same,interaction score,4H3438-AA,-0.819
same,interaction score,4H3001-AA,-1.68
same,interaction score,4H3493-AA,-1.21
same,interaction score,4H963-AA,-0.435
same,interaction score,4H2592-AA,1.34
